Data published in patent US8440199B2, “Methods for mobilizing mesenchymal stem cells in a patient” (Imperial Innovations Limited, priority 2007, dated 2013).
Like-named read-outs stand apart in the source and are kept apart here.

Columns and labels:
[1] = system: haematopoietic progenitor cells (HPC); test: Example 1: HPC mobilisation, hind limb bone marrow perfusion and circulating blood, CFU-HPC assay; assay type: in vivo, mice
Protocol: Assay was performed in duplicate Mobilised cells were maintained in semi-solid methylcellulose cultures for 11 days before quantification of the number of CFU-HPCs.

SPCs [2] = test: Circulating CFU-SPC (CFU-F) in blood; conditions: agent alone (AMD3100 5 mg/kg i.p., blood at 60 min; G-CSF once daily for 4 days), FIG. 20d
Protocol: 24 hours after the last injection, mice were administered a CXCR4 antagonist (AMD3100 5 mg/kg i.p, closed bars) or vehicle (PBS, open bars). 60 minutes later, blood was taken for analysis of circulating: b, CFU-HPC; c, CFU-EPC; and d, CFU-SPC. CFU-HPC, CFU-EPC, and CFU-SPC are shown as number of colonies per ml blood. n=5-8 mice per group. Data: means±s.e.m. *: P<0.05, **: P<0.01, ***: P<0.001 between selected groups.
(§4) Female BALB/c mice were purchased from Harlan (Oxford, United Kingdom). […] 24 hours after the last injection, mice were administered a CXCR4 antagonist (AMD3100, 5 mg/kg i.p), KC (30 μg/kg i.v.) or vehicle and blood was collected via cardiac puncture 60 minutes later for enumeration of circulating leukocyte, HPC, EPC, and stromal progenitor cell levels.
The perfusate was centrifuged and re-suspended in DMEM+20% FBS. In some experiments citrated blood was obtained via cardiac bleed and lysed for red blood cells. Bone marrow and perfusate cytospins, and blood smears were stained using DiffQuik for the enumeration of mononuclear cells, eosinophils, and neutrophils. […]
The total number of colony forming units mobilized was calculated according to the number of colonies per plate×by the total number of leukocytes mobilized/number of cells seeded. […]

HPCs [3] = test: Circulating CFU-HPC in blood; conditions: FIG. 20b
Protocol: a, Experimental protocol. […] 24 hours after the last injection, mice were administered a CXCR4 antagonist (AMD3100 5 mg/kg i.p, closed bars) or vehicle (PBS, open bars). 60 minutes later, blood was taken for analysis of circulating: b, CFU-HPC; c, CFU-EPC; and d, CFU-SPC. CFU-HPC, CFU-EPC, and CFU-SPC are shown as number of colonies per ml blood. n=5-8 mice per group. Data: means±s.e.m. *: P<0.05, **: P<0.01, ***: P<0.001 between selected groups.
(§5) 24 hours after the last injection, mice were administered a CXCR4 antagonist (AMD3100, 5 mg/kg i.p), KC (30 μg/kg i.v.) or vehicle and blood was collected via cardiac puncture 60 minutes later for enumeration of circulating leukocyte, HPC, EPC, and stromal progenitor cell levels.
In some experiments citrated blood was obtained via cardiac bleed and lysed for red blood cells. […] Bone marrow, perfusate and lysed blood were then used for assays outlined below to enumerate HPCs (CFU-HPC), EPCs (CFU-EPC), SPCs (CFU-F).
5×10^4 cells were added to Methocult medium (Stem cell technologies) supplemented with specific cytokines and growth factors to enable formation of CFU-HPC. Mobilized cells were incubated for 11 days before quantification.
(§6) The total number of colony forming units mobilized was calculated according to the number of colonies per plate×by the total number of leukocytes mobilized/number of cells seeded.

[4] = system: mesenchymal stem cells (MSC); test: Example 1: MSC mobilisation, hind limb bone marrow perfusion and circulating blood, CFU-MSC assay; assay type: in vivo, mice; conditions: perfusate and blood, FIGS. 9-12
Protocol: 4×10^5 cells were added to 3 ml Mesencult media including supplements (05501 and 05502 Stemcell Technologies). Assay was performed in duplicate.

[5] = system: endothelial progenitor cells (EPC); test: Example 1: EPC mobilisation, hind limb bone marrow perfusion and circulating blood, CFU-EPC assay; conditions: for EPC mobilization: perfusate and blood
Protocol: 24 hours after the last injection, mice were administered a CXCR4 antagonist (AMD3100, 5 mg/kg i.p), or vehicle and blood was collected via cardiac puncture 1 hour later for enumeration of circulating leukocyte, HPC, EPC and MSC levels.
On day 5, mice were anaesthetized with urethane (25% 0.2 ml i.p.) and the femoral artery and vein exposed. The hind limb was isolated by occlusion of the external iliac artery, superficial epigastric and muscular branch with 5/0 braided silk suture. Polyethylene cannulae (0.61 mm OD, Portex, London, UK) were immediately inserted into the femoral artery and vein and tied in place with 5/0 braided silk suture. Perfusion buffer (modified Krebs-Ringer bicarbonate buffer) at 37° C. was infused (0.15 ml/min) via the arterial cannula and removed from the venous cannula using a Minipuls peristaltic pump (Anachem, Luton, UK). The hind limb was perfused for an initial 10 minutes to remove remaining blood from the vasculature and then perfused for a further 60 min with vehicle alone or AMD3100, a CXCR4 antagonist (0.1 mM, Sigma UK) infused over the first 10 minutes using an infusion/withdrawal pump (Harvard Instruments, U.K.).
The perfusate was collected and centrifuged and the cell pellet re-suspended in Dulbecco's modified eagles medium (DMEM) with 20% fetal bovine serum (FBS). A total cell count was performed before the perfusate was lysed for red blood cells, re-suspended again in DMEM (20% FBS) and used for assays outlined below to enumerate haematopoietic progenitor cells (CFU-HPC), endothelial progenitor cells (CFU-EPC), and leukocyte populations.
In some experiments blood was taken to enumerate HPCs, EPCs and leukocytes. A total cell count was performed on citrated blood before being lysed for red blood cells and re-suspended in DMEM (20% FBS).
Assay was performed in duplicate. Dishes were incubated for 7 days before media was changed, and then incubated for a further 14 days before the enumeration of late outgrowth endothelial progenitor cells. Early outgrowth endothelial progenitor cells were enumerated on day 5.
In each of the above assays, the total number of colony forming units mobilised is calculated according to the number of colonies per plate×by the total number of leukocytes mobilized/number of cells seeded.
Mice were anaesthetised and the femoral artery and vein was cannulated such that the femoral bone marrow could be perfused (Martin et al, (2006) Br. J. Haem. 134: 326-329). […]
Mice were injected i.p. with the CXCR4 antagonist, AMD3100, (or vehicle control) and 1 h later the mice were killed. Blood was collected by cardiac puncture and stem cell numbers in the blood were determined. […]

EPCs [6] = test: In situ perfusion of mouse hind limb, CFU-EPC in perfusate; assay type: in vivo, mice; conditions: for EPC mobilization from the bone marrow: agent alone (CXCR4 antagonist 0.1 mM infused 10 min; G-CSF or VEGF pre-treatment 4 days), FIG. 21c
EPCs [7] = test: Circulating CFU-EPC in blood; assay type: in vivo, mice; conditions: FIG. 20c
HPCs [8] = conditions: cited from earlier work
HPCs [9] = test: In situ perfusion of mouse hind limb, CFU-HPC in perfusate; conditions: for HPC mobilization from the bone marrow: FIG. 21b
Protocol: 24 hours after the last injection, mice underwent perfusion of the right hind limb. […] The hind limb was then perfused for a further 50 minutes to allow collection of b, CFU-HPC; c, CFU-EPC; or d, CFU-SPC; via the femoral vein. CFU-HPC, CFU-EPC, and CFU-SPC are shown as total number of colonies collected in the perfusate. n=5-8 mice per group. Data: means±s.e.m. *: P<0.05, **: P<0.01, ***: P<0.001 between selected groups.
Female BALB/c mice were purchased from Harlan (Oxford, United Kingdom).
(§7) On day 5 following pre-treatment of growth factors, mice were anaesthetized and the femoral artery and vein exposed. The hind limb was isolated by occlusion of the external iliac artery, superficial epigastric and muscular branch. Polyethylene cannulae (Portex, London, UK) were immediately inserted into the femoral artery and vein as previously described (Martin et al., 2003; 2006; Wengner et al., 2008). Perfusion buffer was infused via the arterial cannula and removed from the venous cannula using a Minipuls peristaltic pump (Anachem, Luton, UK). The hind limb was perfused for an initial 2 minutes to remove remaining blood from the vasculature and then perfused for a further 60 min with vehicle alone or the CXCR4 antagonist (AMD3100, 0.1 mM), infused over the first 10 minutes using an infusion/withdrawal pump (Harvard Instruments, U.K.).
The perfusate was centrifuged and re-suspended in DMEM+20% FBS. […] Bone marrow, perfusate and lysed blood were then used for assays outlined below to enumerate HPCs (CFU-HPC), EPCs (CFU-EPC), SPCs (CFU-F).
5×10^4 cells were added to Methocult medium (Stem cell technologies) supplemented with specific cytokines and growth factors to enable formation of CFU-HPC. Mobilized cells were incubated for 11 days before quantification. Further characteristics of CFU-HPC colonies were obtained on day 12, namely the mean number of cells in each colony, and the mean colony area. The mean colony area (mm^2) was determined by image analysis using Scion Image analysis program (NIH). The cell number was determined by diluting colonies grown in Methocult into DMEM (to disperse the methylcellulose) and aspirating the colonies into a single cell suspension before obtaining a cell count.
as §6

SPCs [10] = test: In situ perfusion of mouse hind limb, CFU-SPC in perfusate; assay type: in vivo, mice; conditions: for SPC mobilization from the bone marrow: FIG. 21d
Protocol: a, overview of procedures set up for identifying the direct mobilization of progenitor cells from the femoral bone marrow. […] 24 hours after the last injection, mice underwent perfusion of the right hind limb. CXCR4 antagonist (AMD3100 0.1 mM, closed bars) or vehicle (PBS, open bars) were then infused directly into the femoral artery for 10 minutes. The hind limb was then perfused for a further 50 minutes to allow collection of b, CFU-HPC; c, CFU-EPC; or d, CFU-SPC; via the femoral vein. CFU-HPC, CFU-EPC, and CFU-SPC are shown as total number of colonies collected in the perfusate. n=5-8 mice per group. Data: means±s.e.m. *: P<0.05, **: P<0.01, ***: P<0.001 between selected groups.
as §5, §7
(§8) The perfusate was centrifuged and re-suspended in DMEM+20% FBS. In some experiments citrated blood was obtained via cardiac bleed and lysed for red blood cells. Bone marrow and perfusate cytospins, and blood smears were stained using DiffQuik for the enumeration of mononuclear cells, eosinophils, and neutrophils. Bone marrow, perfusate and lysed blood were then used for assays outlined below to enumerate HPCs (CFU-HPC), EPCs (CFU-EPC), SPCs (CFU-F).
(§9) 5×10^5 cells were added to Mesencult media including supplements (Stemcell Technologies). Dishes were incubated for 7 days before media was changed, and then incubated for a further 14 days before the enumeration of SPC colonies (CFU-F).
as §6

neutrophils = test: Leukocyte counts of bone marrow; assay type: in vivo, mice; conditions: treated 4 days, compared to controls, FIG. 24f
Protocol: 24 hours later these mice underwent perfusion of the right hind limb. CXCR4 antagonist (AMD3100 0.1 mM, closed bars) or vehicle (PBS, open bars) were then infused directly into the femoral artery for 10 minutes. The hind limb was then perfused for a further 50 minutes to allow collection of a, neutrophils via the femoral vein. […] The hind limb was again perfused for a further 50 minutes to allow b, collection of neutrophils.
The perfusate was centrifuged and re-suspended in DMEM+20% FBS. […] Bone marrow and perfusate cytospins, and blood smears were stained using DiffQuik for the enumeration of mononuclear cells, eosinophils, and neutrophils.

CXCR4 = test: Flow cytometry of CXCR4 expression on bone marrow HPCs and EPCs; assay type: in vivo, mice; conditions: treated 4 days
Protocol: (§1) Bone marrow was aspirated on day 5 and harvested cells were used to determine a, SDF-1α levels in bone marrow supernatant as determined by ELISA; b, % of bone marrow Lin^− Sca-1^+ cells expressing CXCR4; and c, % of bone marrow CD34^+ VEGFR2^+ cells expressing CXCR4. Harvested cells were also utilized in the following chemotaxis assays: d, number of HPCs; and e, EPCs undergoing chemotaxis towards 30 nM SDF-1α. Cells taken from bone marrow of mice treated with G-CSF (closed bars) or vehicle (PBS, open bars). f, number of HPCs; and g, EPCs undergoing chemotaxis towards 30 nM SDF-1α.
(§2) For flow cytometric analysis, cells were re-suspended in FACS buffer. To identify neutrophils in the bone marrow, surface expression of the granulocyte marker Ly-6G/Ly6C (Gr-1) was determined. Neutrophils were identified as Gr-1^high positive cells with a characteristic high side scatter profile. HPCs residing in the BM were selected as being negative for lineage (Lin^−) markers: CD3e, CD11b, CD45R, Ly-76, and Gr-1 and positive for Sca-1 (Lin^− Sca-1^+ cells) (Gerber et al., 2002; Uchida, et al., 1997). EPCs residing in the BM were selected as being positive for both CD34 and VEGFR2 (CD34^+ VEGFR2^+ cells) (Asahara et al., 1997; Yoon et al., 2005). Furthermore, neutrophils were stained for the surface expression of CXCR2, whilst Lin^− Sca-1^+ cells and CD34^+ VEGFR2^+ cells were stained for the cell surface expression of CXCR4. Samples were then washed and then quantified on a FACSAria cell sorter (BD Biosciences, Oxford, United Kingdom) and analysed using FACSDiva software.

SPCs [11] = test: CFU-SPC bone marrow frequency; assay type: in vivo, mice; conditions: treated over 4 days, compared to controls, FIG. 22c
Protocol: (§10) 24 hours after the last injection, bone marrow was aspirated for the enumeration of a, CFU-HPC bone marrow frequency; b, CFU-EPC bone marrow frequency; and c, CFU-SPC bone marrow frequency.
as §4, §8, §9

HPCs [12] = test: In vitro chemotaxis of bone marrow HPCs towards SDF-1α; assay type: cell-based; conditions: bone marrow cells of mice treated 4 days; 30 nM SDF-1α, FIG. 23d, 23f
Protocol: as §1

EPCs [13] = test: In vitro chemotaxis of bone marrow EPCs towards SDF-1α; assay type: cell-based; conditions: bone marrow cells of mice treated 4 days; 30 nM SDF-1α, FIG. 23e, 23g
Protocol: as §1

EPCs [14] = test: CFU-EPC bone marrow frequency; assay type: in vivo, mice; conditions: treated over 4 days, compared to controls, FIG. 22b
Lin^− Sca-1^+ HPCs = test: PI staining, cell cycle status of Lin- Sca-1+ HPCs; assay type: in vivo, mice; conditions: treated 4 days, FIG. 25c
Protocol: as §2, with “Furthermore, neutrophils were stained for the surface expression of CXCR2, whilst Lin^− Sca-1^+ cells and CD34^+ VEGFR2^+ cells were stained for the cell surface expression of CXCR4.” left out
(§3) Lin^− Sca-1^+ cells and CD34^+ VEGFR2^+ cells were analysed to determine their cell cycling status using a propidium iodide (PI) stain. […] A dotplot of PI-Width against PI-Area was recorded. Aggregates of cells were detected as cells having a larger PI-W profile and were not included in the gate. […] To calculate the percentage of cells undergoing active cell cycling, a marker was set to exclude the G0/G1 peak and the percentage of cells in S/G2/M was calculated.

HPCs and MSCs = conditions: Ripa et al. (2007) Circulation 116; cited from earlier work
CD34^+ VEGFR2^+ EPCs = test: PI staining, cell cycle status of CD34+ VEGFR2+ EPCs; assay type: in vivo, mice; conditions: treated 4 days, FIG. 25d
Protocol: as §2, with “Furthermore, neutrophils were stained for the surface expression of CXCR2, whilst Lin^− Sca-1^+ cells and CD34^+ VEGFR2^+ cells were stained for the cell surface expression of CXCR4.” left out
as §3

SDF-1α = SDF-1α ELISA on bone marrow supernatants; assay type: in vivo, mice; conditions: treated once daily for 4 days, FIG. 23a
Protocol: as §1
Supernatant from bone marrow aspirates was analyzed for SDF-1α content as per the recommended protocol for the capture and detection antibody (MAB350 and BAF310 respectively. RnD systems).

[15] = Total number of cells in the femurs; assay type: in vivo; conditions: treated over 4 days; not significantly different compared to control mice
Protocol: as §10, §5, §8

[16] = agent alone (AMD3100 5 mg/kg i.p., blood at 60 min; G-CSF or VEGF once daily for 4 days)
[17] = agent alone (CXCR4 antagonist 0.1 mM infused 10 min; G-CSF or VEGF pre-treatment 4 days), perfusate over 1 hour
[18] = agent alone (CXCR4 antagonist 0.1 mM infused 10 min; G-CSF or VEGF pre-treatment 4 days)
[19] = growth factor pre-treatment 4 days, then CXCR4 antagonist infused

Molecule: c1cc(CN2CCCNCCNCCCNCC2)ccc1CN1CCCNCCNCCCNCC1 [AMD3100, reference compound]
- HPCs mobilised (number) ([1]; AMD3100 alone, 0.1 mM infused into hind limb, perfusate, FIG. 3): about 4000
- circulating SPCs (SPCs [2]): SPCs were not detected in the blood
- circulating numbers of HPCs (HPCs [3]; [16]): increased circulating numbers of HPCs and EPCs
- MSC mobilization ([4]; agent alone): does not mobilize MSCs
- EPCs mobilised (number) ([5]; AMD3100 alone, 0.1 mM infused into hind limb, perfusate, FIG. 5): ~400
- EPC mobilization ([5]; agent alone, FIGS. 5 and 6): stimulates the mobilization of EPCs
- EPC mobilization from the bone marrow (EPCs [6]): HPCs and EPCs, but not SPCs were mobilized
- circulating numbers of EPCs (EPCs [7]; [16]): increased circulating numbers of HPCs and EPCs
- circulating numbers of HPCs (HPCs [8]; AMD3100 alone, mice and humans): stimulates a rapid rise in circulating numbers of HPCs in both mice and humans
- HPC mobilization from the bone marrow (HPCs [9]; [17]): HPCs and EPCs, but not SPCs were mobilized
- SPC mobilization from the bone marrow (SPCs [10]; [18]): HPCs and EPCs, but not SPCs were mobilized

B1: G-CSF: Granulocyte-colony stimulating factor, recombinant murine cytokine from PeproTech (protein, UniProt P09920 31-208, looked up)
Granulocyte …: VPLVTVSALPPSLPLPRSFLLKSLEQVRKIQASGSVLLEQLCATYKLCHPEELVLLGHSLGIPKASLSGCSSQALQQTQCLSQLHSGLCLYQGLLQALSGISPALAPTLDLLQLDVANFATTIWQQMENLGVAPTVQPTQSAMPAFTSAFQRRAGGVLAISYLQGFLETARLALHHLA
- numbers of neutrophils in the bone marrow (neutrophils): increased numbers of neutrophils in the bone marrow
- HPC mobilization ([1]; G-CSF or VEGF 2.5 μg on 4 consecutive days, then AMD3100 (0.1 mM infusion or 5 mg/kg i.p.), perfusate and blood, FIGS. 1-4): acts synergistically with AMD3100 to mobilize HPCs
- circulating SPCs (SPCs [2]): no SPCs were detected
- CXCR4 expression on EPCs (CXCR4; CD34+ VEGFR2+ bone marrow cells, FIG. 23c): the expression of CXCR4 on EPCs was unchanged
- CXCR4 expression on HPCs (CXCR4; Lin- Sca-1+ bone marrow cells, FIG. 23b): significant reduction
- frequency/number of SPCs in the bone marrow (SPCs [11]): an increase in the number of SPCs
- circulating numbers of HPCs (HPCs [3]; [16]): increased circulating numbers of HPCs
- circulating numbers of HPCs (HPCs [3]; growth factor pre-treatment over 4 days, then CXCR4 antagonist AMD3100 5 mg/kg i.p., blood at 60 min): synergistically enhanced circulating numbers of HPCs
- MSC mobilization ([4]; G-CSF or VEGF 2.5 μg on 4 consecutive days, then AMD3100): does not mobilize MSCs
- MSC mobilization ([4]; agent alone): does not mobilize MSCs
- EPC mobilization ([5]; G-CSF or VEGF 2.5 μg on 4 consecutive days, then AMD3100, FIGS. 5-8): not enhanced
- HPC chemotaxis towards SDF-1α (HPCs [12]): further increased migration of HPCs and EPCs to SDF-1α
- EPC chemotaxis towards SDF-1α (EPCs [13]): further increased migration of HPCs and EPCs to SDF-1α
- EPC mobilization from the bone marrow (EPCs [6]): enhanced the basal rate of HPC and EPC egress from the bone marrow
- EPC mobilization, acute administration (EPCs [6]; growth factor (50 nM) infused into femoral artery for 10 minutes, alone, FIG. 31b): mobilized both HPCs and EPCs
- circulating numbers of EPCs (EPCs [7]; growth factor pre-treatment over 4 days, then CXCR4 antagonist AMD3100 5 mg/kg i.p.): no such synergism (or even additive effect) was apparent for EPC mobilization
- frequency/number of EPCs in the bone marrow (EPCs [14]): significant reduction in the number of bone marrow EPCs
- percentage of Lin- Sca-1+ HPCs in S/G2/M phase of the cell-cycle (Lin^− Sca-1^+ HPCs): does not stimulate entry
- stem cell mobilisation (HPCs and MSCs): mobilises HPCs but causes a decrease in MSCs
- HPC mobilization (HPCs [8]; chronic G-CSF treatment combined with acute treatment with AMD3100): synergistic effect
- percentage of CD34+ VEGFR2+ EPCs in S/G2/M phase of the cell-cycle (CD34^+ VEGFR2^+ EPCs): does not stimulate entry
- HPC mobilization from the bone marrow (HPCs [9]; [17]): enhanced the basal rate of HPC and EPC egress from the bone marrow
- HPC mobilization, acute administration (HPCs [9]; growth factor (50 nM) infused into femoral artery for 10 minutes, alone, FIG. 31a): mobilized both HPCs and EPCs
- HPC mobilization from the bone marrow (HPCs [9]; [19]): synergistic mobilization of HPCs
- SPC mobilization from the bone marrow (SPCs [10]; [18]): did not lead to the mobilization of SPCs
- SPC mobilization, acute administration (SPCs [10]; growth factor (50 nM) infused acutely, alone or in combination with CXCR4 antagonist, FIG. 31c): neither growth factor, when administered acutely or in combination with the CXCR4 antagonist led to mobilization of SPCs
- SPC mobilization from the bone marrow (SPCs [10]; [19]): no SPCs were mobilized
- SDF-1α levels in bone marrow supernatant (SDF-1α): significant reduction in levels of SDF-1α
- total number of cells in the femurs [15]: 1.41±0.28×10^7 cells/femur
